Assays:
[1] = target: trimeric ASIC1a concatemeric fusion protein 3_(ASIC)FP (H8-(hA1a-N1Q7)2-hA1a) (human) (UniProt P78348); test: cross-linking; oxidation with 0.3 mM NaTT (20 min, 4°C) of Ni-NTA affinity-purified fractions from Xenopus oocytes and CHO cells, on the beads; non-reducing SDS-PAGE, anti-ASIC1a western blot
[2] = target: trimeric ASIC1a concatemeric fusion protein 3_(ASIC)FP (H8-(hA1a-N1Q7)2-hA1a) (human) (UniProt P78348); test: cross-linking; BMOE (0.5 or 2 mM) at the cell surface of Xenopus oocytes and CHO cells before lysis, cell-surface biotinylated fractions, SDS-PAGE under reducing conditions, anti-ASIC1a western blot; band intensities pooled over oocytes and CHO cells

Substance: single ASIC1a subunit available in cells expressing 3_(ASIC)FP
- percent of ASIC1a that migrates as the tetramer [1]: > 60%
- percent of ASIC1a that migrates as the tetramer [2]: > 60%

From paper PMC4529235
